The text below walks through data of patent US10385327B2, “Enhanced E. coli for the production of fatty acids and method of producing the same” (University of Puerto Rico, priority 2012, dated 2019).

Substrate in this data set: C/C=C/C(=O)SCCNC(=O)CCNC(=O)[C@H](O)C(C)(C)COP(=O)(O)OP(=O)(O)OC[C@H]1O[C@@H](n2cnc3c(N)ncnc32)[C@H](O)[C@@H]1OP(=O)(O)O
Nature of the data set: Kinetic assay of dehydratase activity: hydration of crotonyl-CoA monitored at 235 nm, fit to Michaelis-Menten equation. Conditions: other: crotonyl-CoA, hydration reaction, substrate 0-600 μM, 25 mM Tris, 150 mM NaCl, 10% glycerol, pH 8.0. It is filed as biochemical, Photobacterium profundum. The protocol:
For the cloning of fragments into pET200TOPO SEQ.ID15, the amplified DNA was gel purified using a Gel Extraction Kit and incubated with pET200TOPO. The resulting clones were selected in LB-agar containing kanamycin (100 μg/mL). All resistant clones were introduced into E. coli strain SEQ.ID16 BL21-DE3-Codon Plus-RIL and grown in liquid LB at 37° C. until the OD600=0.4 at which time the temperature was decreased to 22° C.° until the OD600=0.6 at which time protein expression was induced with 1 mM IPTG. […]
Dehydratase activity was measured in a hydration assay by using Crotonyl-CoA and Crotonyl-NAC as substrates. […] The values for the absorbance slope (given in mAU/min) were converted to units of μmole of product per minute by using the following equation: μmole of product/min=[Slope/ε×b]×Voltotal (Eq1)
in which the slope is given by the instrument in units of milliabsorbance (mAU) per minute, b is the path length measured to be 0.89 cm for a Voltotal=200 μl in our 96-well plates. The ε is the molar extinction coefficient resulting from the loss of a double bond as defined by the difference in absorbance between crotonyl-CoA and β-hydroxybutyryl-CoA at a particular wavelength. The extinction coefficient was calculated to be ε=969.9 M^−1 cm^−1 for the reaction monitored at 260 nm and ε=790.7 M^−1 cm^−1 for the reaction monitored at 235 nm. […]

B1: DH1-DH2-UMA (His-tagged dehydratase tetradomain fragment, I1096-N-Term, of pfaC PUFA synthase from Photobacterium profundum; pfaC SEQ.ID17, GenBank AF409100.1; … (protein)
chain: IRKPCIWDYEDLVEYAEGDIANVFGPDYAVIDNYSRRVRLPTTDYLLVSRVTKLDATMLEYKPSTMTTEYDIPVDAPYLVDGQIPWAVAVESGQCDLMLISYLGIDFENKGERVYRLLDCTLTFLGDLPRGGDTLRYDISINNFARNGDTLLFFFSYECFVGDKMVLKMDNGCAGFFTDEELSDGKGVIRTEDEIKSRNLAVKQRFNPLLHCQKTQFDYQTLHNLLDANIAGCFGESHISDRHQPSLCFSSDKFMMIEQISHVDPQGGTWGLGLIEGHKQLEADHWYFPCHFKDDSVMAGSLMAEGCGQLLQFFMMYLGMHTQVENGRFQPLENAPQQVRCRGQVLPQSAVLTYRMEVTEIGLSPRPYAKANIDILLDGKVVVDFQNLGVMIKEESECTRYLGSSDFDSASLASSSYVAESAPAQADVITPVEAPISQQASANAPLMAQIPDLNTAPNKGVIPLQHIEAPIVPDYQNRTPDTVPFTPYHMFEFATGDIEKCFGPDFSIYRGMIPPRTPCGDLQLTTRVIEVNGTRGDFKTPSSCIAEYEVPENAWYFDENSHSSLMPYSVLMEISLQPNGFISGYMGTTLGFPGLELFFRNLDGSGKMLRNVDLRGKTIVNDSRLLSTVMMGTNIVQSFSFELSTDGVPFYEGTAVFGYFKGAALKDQLGLDNGQVTYPWHVNNNRTPDVSINLLDKESRYFNAPLSATGEAQPHYQLAGGRLNFIDKVDITSDGGKAGLGYLYAERTIDPSDWFFQFHFHQDPVMPGSLGVEAIIELMQTYALNKDLGAGFRSPKFGQIQSEVKWKYRGQINPLNKQMSLDVHITAIKDEDGKRIIVGDANLSKDGLRIYEVKDIAICIEEA
As usually defined, the Km is the substrate concentration at which the rate is half of its maximum. Regarding B1, the Km is 156 µM and the Vmax was determined as 0.0001 μmol product/min.
